Test results: patent US5700777A, “Fatty acid - pulmonary surfactant conjugates” (Abbott Laboratories, priority 1995, dated 1997)

What was measured:
Type in all cases: physicochemical
[1] = Modified Wilhelmy surface balance (Langmuir trough): dynamic surface tension versus compressed surface area; details: for Surface activity of admixtures, in words: data of Tables 2 and 3 (Wilhelmy balance, King-Clements, pulsating bubble); for Wilhelmy-Langmuir Trough Equilibrum (equilibrium adsorption value): after a three (3) minute spreading time, total peptide 0.5 mg/ml; for Wilhelmy-Langmuir Trough Equilibrum (equilibrium adsorption value) / Wilhelmy-Langmuir Trough Max (maximum dynamic surface tension) / Wilhelmy-Langmuir Trough Min (minimum dynamic surface tension): 37° C.; for Wilhelmy-Langmuir Trough Max (maximum dynamic surface tension) / Wilhelmy-Langmuir Trough Min (minimum dynamic surface tension): peptide/lipid admixture, total peptide 0.5 mg/ml (two peptides: 0.25 mg/ml each), 675 μg phospholipid, seven compression-expansion cycles, average of 3 runs
Description: The dynamic surface tension lowering properties of the peptide/lipid admixtures were studied using a modified Wilhelmy Surface Balance (Langmuir Trough). The instrument consists of an all Teflon trough and movable Teflon ribbon (dam) barrier system which completely contains and defines a variable surface area. Surface area was varied through the use of a constant rate reversible 3-phase motor to drive the Teflon barrier. A Cahn 2000 electrobalance (Cahn Instruments, Cerittos, CA) with a sandblasted 1 cm platinum plate and stainless steel hangdown wire was employed to determine the surface tension at the liquid-air interface. The entire apparatus was situated in a thermostated incubator set at 45° C. Surface area-surface tension measurements were made by adding 950 ml of 0.15M NaCl to the trough. Subphase temperature was controlled during the measurements at 36°-38° C.
For each experiment 27 ul of peptide/lipid admixture was applied in a random array of 13 (.congruent.2 ul) droplets to the surface of the temperature controlled subphase and allowed to spread spontaneously for 3 minutes. (The 27 ul application corresponds to 675 ug of phospholipid). The trough surface area was then cycled from a maximum (445 sq. cm) to a minimum (178 sq. cm) surface area and back to maximum at a cycling rate of 3 cycles/min (compression ratio 2.5:1). The dynamic surface tension vs surface area was recorded for 7 complete compression-expansion cycles for each application.

[2] = Adsorption rate, King-Clements system (Wilhelmy balance with stirred round Teflon dish); details: 10 ml of diluted sample (1:50) added under constant agitation to 70 ml saline subphase; 37° C.
Description: A procedure similar to that described by Notter, et al., Pediatric Res. 16, 515-519, (1982) was employed to determine the absorption rate in the absence of diffusion resistance. The modified Wilhelmy surface balance as described above was used. However, instead of using a Langmuir trough a round Teflon dish (5.1 cm diameter) was employed. The subphase, 70 ml of 0.15M NaCl, was allowed to equilibrate to 37° C. in the incubator and was continuously stirred with a Teflon coated magnetic stirer. An aliquot of the peptide/lipid admixture containing 5 mg of total phospholipid was dispersed in 10 ml of 0.15M NaCl by vortexing for 10 seconds. This dispersion was then added to the saline subphase. Surface tension lowering was monitored using a strip chart recorder connected to the electrobalance output and data collected for 20 minutes.

[3] = Pulsating bubble surfactometer (PBS) surface tension; details: after 100 cycles (5 minutes, 20 cycles/minute); phospholipid 1 mg/ml; 37° C.; diluent […] NaCl; mean of triplicate
Description: The PBS equipment (Electronetics, Buffalo, N.Y.) used was essentially equivalent to that described in detail by G. Enhorning, J. Appld. Physiol. 43, 198-203, (1977). Recordings were made of the pressure gradient across the wall of a small air bubble, communicating with ambient air by means of a narrow chimney stack, but otherwise entirely surrounded by a 40 ul volume of the peptide/lipid admixture. The admixture concentration employed for these studies was 1 mg/ml total phospholipid (0.02 mg/ml total peptide) and the diluent was 0.15M NaCl. Immediately prior to loading the sample chamber, the diluted samples were sonicated for 15 seconds to remove any gas nuclei.
The pressure drop across the air-water interface was measured during pulsation by a pressure transducer, and the corresponding surface tension determined through the application of Young's law and the Laplace equation. Measurements were all made at 37° C. and the bubble pulsed at 20 cycles/minute to render respectively a maximum (1.1 mm) and a minimum (0.8 mm) bubble diameter. (This compression/expansion corresponds to a 50% change the surface area of the air-water interface).

| Molecule | Surface activity of admixtures, in words [1] | Wilhelmy-Langmuir Trough Equilibrum (equilibrium adsorption value) [1] [dynes/cm] | Wilhelmy-Langmuir Trough Max (maximum dynamic surface tension) [1] [dynes/cm] | Wilhelmy-Langmuir Trough Min (minimum dynamic surface tension) [1] [dynes/cm] | King-Clements Adsorption (adsorption surface tension) [2] [dynes/cm] | Surface Tension Values Maximum (pulsating bubble apparatus) [3] [dynes/cm] | Surface Tension Values Minimum (pulsating bubble apparatus) [3] [dynes/cm] |
| --- | --- | --- | --- | --- | --- | --- | --- |
| C-14 (Myristic acid)-SP-C (FGIPCCPVHLKRLLIVVVVVVLIVVVIVGALLMG; Pulmonary surfactant-associated protein C N-terminal myristic acid; UniProt P11686 24-57, looked up, fragment) [C14 -SPC(1-34), myristic acid (C14) covalently attached to the N-terminal end of synthetic human SP-C(1-34)] | unusual surface activity | – | – | – | – | – | – |
| C-16 (Palmitic acid)-SP-C (FGIPCCPVHLKRLLIVVVVVVLIVVVIVGALLMG; Pulmonary surfactant-associated protein C N-terminal palmitic acid; UniProt P11686 24-57, looked up, fragment) [C16 -SPC(1-34)] | unusual surface activity | – | – | – | – | – | – |
| SPB(53-78): synthetic C-terminal SP-B fragment, sequence based on natural SP-B (YSVILLDTLLGRMLPQLVCRLVLRCS; Pulmonary surfactant-associated protein B; UniProt P07988 253-278, looked up, fragment) [reference compound] | – | 40.0 | 49.3 | 0.1 | 45.0 | 55.5 | 4.9 |
| SPB(1-78): synthetic full length SP-B peptide, sequence based on natural SP-B (peptide, UniProt P07988 201-279, looked up, Pulmonary surfactant-associated protein B) Pulmonary …: FPIPLPYCWLCRALIKRIQAMIPKGALAVAVAQVCRVVPLVAGGICQCLAERYSVILLDTLLGRMLPQLVCRLVLRCSM | – | 38.0 | 45.0 | 0.0 | 30.0 | 49.0 | 4.2 |
